Reference: paper PMC12574955, “The Ync13–Rga7–Rng10 complex selectively coordinates secretory vesicle trafficking and secondary septum formation during cytokinesis” (PLOS Biology, 2025)

Target: T1, MBP-Ync13-6xHis (Schizosaccharomyces pombe, UniProt O13683 1-1237)
T1 construct: Ync13, Munc13/UNC-13 family protein of Schizosaccharomyces pombe; FL cDNA in pET21a-MBP; MBP-TEV-GGSGGS precedes Ync13; also called MBP-Ync13-6His; not shown: MBP, N-terminal, kept; His6, C-terminal, kept
T1 sequence (looked up): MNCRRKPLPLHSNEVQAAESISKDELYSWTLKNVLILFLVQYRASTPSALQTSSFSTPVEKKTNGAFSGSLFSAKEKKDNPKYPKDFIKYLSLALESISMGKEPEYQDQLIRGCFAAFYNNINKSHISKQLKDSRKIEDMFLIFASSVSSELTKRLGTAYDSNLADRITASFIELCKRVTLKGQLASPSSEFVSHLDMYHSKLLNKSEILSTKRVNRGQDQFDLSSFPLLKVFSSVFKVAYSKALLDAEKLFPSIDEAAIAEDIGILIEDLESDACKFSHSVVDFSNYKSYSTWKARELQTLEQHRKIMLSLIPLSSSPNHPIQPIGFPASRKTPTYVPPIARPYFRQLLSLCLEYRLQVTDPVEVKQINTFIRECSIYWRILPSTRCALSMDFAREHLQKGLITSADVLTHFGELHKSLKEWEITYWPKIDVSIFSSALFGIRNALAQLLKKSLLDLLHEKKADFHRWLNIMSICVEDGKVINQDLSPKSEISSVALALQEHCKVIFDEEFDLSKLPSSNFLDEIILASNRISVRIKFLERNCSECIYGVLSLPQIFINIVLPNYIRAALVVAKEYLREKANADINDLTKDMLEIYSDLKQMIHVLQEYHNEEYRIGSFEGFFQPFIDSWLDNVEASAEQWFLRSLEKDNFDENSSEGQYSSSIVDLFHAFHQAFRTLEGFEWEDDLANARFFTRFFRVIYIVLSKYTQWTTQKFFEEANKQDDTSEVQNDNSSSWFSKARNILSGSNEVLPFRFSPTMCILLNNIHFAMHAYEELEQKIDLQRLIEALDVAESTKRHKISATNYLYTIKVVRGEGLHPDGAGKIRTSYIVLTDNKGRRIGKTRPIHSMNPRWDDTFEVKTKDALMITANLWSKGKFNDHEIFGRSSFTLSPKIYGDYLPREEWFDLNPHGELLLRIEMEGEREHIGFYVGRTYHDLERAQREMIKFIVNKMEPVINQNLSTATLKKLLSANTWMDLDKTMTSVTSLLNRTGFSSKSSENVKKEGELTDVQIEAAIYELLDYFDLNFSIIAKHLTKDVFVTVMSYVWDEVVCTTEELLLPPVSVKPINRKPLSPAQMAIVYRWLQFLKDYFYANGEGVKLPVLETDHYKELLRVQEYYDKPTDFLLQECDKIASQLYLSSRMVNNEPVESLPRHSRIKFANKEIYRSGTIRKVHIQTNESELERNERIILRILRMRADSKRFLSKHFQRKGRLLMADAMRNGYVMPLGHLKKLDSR
Test: supernatant depletion assay; Rga7-6xHis at 4 µM titrated with MBP-Ync13-6xHis immobilized on Cobalt beads; beads pelleted at 16,000g, supernatant on SDS-PAGE, Coomassie, bound fraction fitted
Conditions: both partners purified

Kd: 10 µM
B1: Rga7-6xHis (natural protein, Schizosaccharomyces pombe, UniProt O94466 1-695, looked up)
chain: MLSAPSSSTTPASPPTSPPNTTSSDDFAVLKEPKVEAILNSELGLAILNDRIKDYLLTCKELAGFFKKRSILEEESGKNLQKLAKSYLETFQSKHHSPQSFSASVITSMEIHEQLANHSLTLQKTLSAFSDQVIEFHKNAERKRKSIKEYAKKQENAYLEAVMQMDKSKSRFKGAETEYNRALDNKNTGDSQKKVGFFKPKSNAQLTKLEDEARLKAENAESDMHSKIENAQNVQKQLLCIHRPNYIKQFFSLQREIESSLIANYLRYTKLCESNTLLNGLTIRPQKPTPTNCGLQHALDNINANTDFVQYVLHASIKHEDNKNPTDASKTKIIQPPSSYGTGSSAGKTNPPVNPTIKVTAAIPSPLQNTNPAPSTFPNPSVASPAFPNSSTSNPSTAPASASPLASTLKPSTANDTNGSSSSSSSNPRTSSPLASNAENKPPVAQQSPPVLLPTLPPIQTTTIQTSREVAPPPSSINSNRAASPFRPTSVSPQPSSPTKSLLFGARLDAIILREHSNIPNIVMQCTSQVENFGLNLQGIYRVPSSSARVNMLRSQFENNPLLQLHTPEDYENDVHAVADLLKIFFRELREPLIPDNHQRDFIDAGNVEDESRRRDAVHRAINDLPDANYSTIRHLTIHLAKIKENSDVNKMSTNNLAIIWGPTIIKQATIPEISSFSRTIEILIDYCFTIFDYD
notes: Rga7, F-BAR protein and Rho2 GAP of Schizosaccharomyces pombe; FL Rga7 in pET21a; also called Rga7-6His; not shown: His6, C-terminal, kept
